Laboratory results: publication PMC3992431 (Current biology : CB, 2014)
Read-outs that look alike come from different tables or passages of the source. One block for each binder: values may come before it.

Columns and labels:
actin filaments [1] = molecular target: T1, actin filaments (rabbit, UniProt P68135 1-377); experiment: co-sedimentation
[2] = molecular target: the molecule itself; experiment: two-color TIRF microscopy
[3] = molecular target: the molecule itself; experiment: two-color TIRF microscopy; remark: listed apart in the source
actin filaments [4] = molecular target: T1, actin filaments; experiment: co-sedimentation; remark: listed apart in the source

- fold lower affinity than INF2-FFC (actin filaments [1]): 5 fold
B1: INF2-FF (domain or fragment)
chain: not shown

B2: GFP-INF2-FFC (domain or fragment)
chain: not shown
- stoichiometry N [2]: 2.06 molecules
- stoichiometry N [3]: 2.17 molecules

- stoichiometry N (actin filaments [4]): 1 INF2 monomer:actin monomer
B3: INF2-FFC (domain or fragment)
chain: not shown
